Data published in US11807881B2, “Polypeptide, fusion polypeptide, and antibiotic against gram-negative bacteria comprising same” (priority 2020, dated 2023).

Columns and labels:
gram negative bacterium = assay: CFU reduction evaluation on various gram negative bacterium; assay type: cell-based
Procedure: For this, Endolysin LNT101 and LNT102 at a concentration of 2 μM and each 1×10^6 CFU of Pseudomonas aeruginosa (PA01; ATCC 15692), Acinetobacter baumannii (ATCC 17978), Escherichia coli (ATCC 8739), Klebsiella pneumoniae (ATCC 13883), Enterobacter aerogenes (CCARM 16006), and Salmonella enteritidis (ATCC 13076) was added in reaction buffer (20 mM Tris-Cl, pH 7.5) so that the final volume was 200 μl, and it was left at 37° C. for 2 hours. In 2 hours, the number of colonies of each gram negative bacterium was confirmed, and the result was shown in FIG. 8 (in FIG. 8, PA90 represents endolysin LNT101 and mtPA90 represents endolysin LNT102, respectively).
The endolysin LNT102 at a concentration of 0.1, 0.5, 2.5 μM, and each 1×10^6 CFU of Pseudomonas aeruginosa, Acinetobacter baumannii, and Escherichia coli was added in reaction buffer (20 mM Tris-Cl, pH 7.5) so that the final volume was 200 μl, and it was left at 37° C. for 2 hours.
(§1) In order to confirm the killing ability against gram negative bacterium of the fusion polypeptide LNT103 prepared in Example 3.2, CFU reduction evaluation was performed for various gram negative bacterium. In order to perform the CFU reduction evaluation, 2 μM of each of LNT101, LNT102, and LNT103 prepared in Example 3, and 1×10^6 CFU of each of Pseudomonas aeruginosa (PA01; ATCC 15692), Acinetobacter baumannii (ATCC 17978), Escherichia coli (ATCC 8739), Klebsiella pneumoniae (ATCC 13883), and Enterobacter aerogenes (CCARM 16006) were added to reaction buffer (20 mM Tris-Cl, pH7.5) so that the final volume was 200 μl, and it was left at 37° C. for 2 hours. After that, the number of the colonies of each gram negative bacterium was confirmed to compare and evaluate the antibiotic effect of each polypeptide. As a control group, the PBS treatment group (treating PBS in the same volume as the fusion polypeptide) was used.
In addition, the same test was performed by using the fusion polypeptide LNT103, and CecA-LNT101 at a concentration of 2 μM, and the result was shown in FIG. 15. For comparison, the same test was performed for groups treated with LNT102 or PBS.
On the other hand, in order to compare the antibacterial activity in case that a protein other than endolysin (LNT102 or LNT101) was fused to Cecropin A, the killing ability against gram negative bacterium of the fusion polypeptide LNT103 and cecropin A-EGFP fusion protein (a protein in which EGFP (GenBank Accession No. AAB02572.1) having no endolysin activity by replacing LNT102 in LNT103) was evaluated. For this, the proteins were treated in an amount of 0.2 μM or 2 μM, respectively, to perform the CFU reduction test. […] In particular, it could be confirmed that the CFU Counting result for all the tested gram negative bacterium killed all bacterium treated with 0, when LNT103 2 μM was treated.
Furthermore, the killing ability against gram negative bacterium according to the concentration and/or treatment time of the fusion polypeptide LNT103 was tested. Specifically, the fusion polypeptide LNT103 at a concentration of 0.1, 0.3, 0.9, or 2.7 μM and 1×10^6 CFU of Pseudomonas aeruginosa (PA01; ATCC 15692) or Acinetobacter baumannii (ATCC 19606) were added to reaction buffer (20 mM Tris-Cl, pH7.5) so that the final volume was 200 μl, and it was left at 37° C. for 2 hours, and then the number of the colonies was confirmed, and the result was shown in A of FIG. 17.
In addition, the fusion polypeptide LNT103 at a concentration of 2 μM and 1×10^6 CFU of Pseudomonas aeruginosa (PA01; ATCC 15692) were added to reaction buffer (20 mM pH7.5) so that the final volume was 200 μl, and in 0, 20 minutes, 40 minutes and 60 minutes at 37° C., the number of the colonies was confirmed, and the result was shown in B of FIG. 17. […]

[1] = tested on: Acinetobacter baumannii ATCC 19606; assay: Acinetobacter baumannii systemic infection mouse model, viability; assay type: in vivo; details: ICR male mice; LNT103 20 mpk and 100 mpk, subcutaneous injection 1 hour and 4 hours after infection; comparative colistin 20 mpk
Procedure: For in vivo effectivity evaluation of the fusion polypeptide LNT103, the viability was confirmed in an Acinetobacter baumannii ATCC 19606 systemic infection mouse model was confirmed.
The process of progressing an animal experiment was as follows. Mice were used when ICR male 4-week-old mice were purchased and a one-week adaptation period was passed, and the weight was 20˜21 g at 5-6 weeks of age. The Acinetobacter bacteria were mixed with 10% mucin at 1:1, and 0.5 ml of 2×10^8 CFU/ml (5% mucin) of the bacterial solution was inoculated intraperitoneally into mice. In 1 hour and 4 hours after infection, LNT103 20 mpk and LNT103 100 mpk, and colistin 20 mpk as a comparative group were administered, respectively, through a subcutaneous injection.

Acinetobacter baumannii = assay: CFU reduction test; assay type: cell-based
Procedure: (§2) In addition, that the LNT101 endolysin had the antibacterial ability in various gram negative bacterium was confirmed by a CFU reduction test, and the result was shown in Table 2 below.
as §1

Huh-7 cell line = assay type: cell-based
Procedure: In vitro toxicity of the fusion polypeptide LNT103 was evaluated by cell cytotoxicity assay (WST assay) using Huh-7 cell line and hemolysis assay using sheep blood (MB cell).
The process of progressing the cell cytotoxicity assay was as follows. The Huh07 cell culture solution was prepared and aliquoted in an amount of […] per well in a 96 well plate, and it was cultured in a CO2 incubator for 24 hours. Then, PBS as a negative control and 1% (w/v) triton X-100 as a positive control were treated, and as an experimental group, the fusion polypeptide LNT103 was treated at a concentration of 0.25, 0.5, or 1 mg/ml, and then it was left in a CO2 incubator for 24 hours and 48 hours. Then, the cell viability was measured using D-Plus™ CCK cell viability assay kit (Dongin LS), and the result was shown in FIG. 18.

Klebsiella aerogenes = assay: CFU reduction test; assay type: cell-based; details: K. aerugenes CCARM 16006
From the text: as §2

Enterobacter cloacae = assay: CFU reduction test; assay type: cell-based; details: E. cloacae CCARM 0252
From the text: as §2

Molecule | antibacterial activity (CFU reduction test) (gram negative bacterium; 0.2 μM or 2 μM (FIG. 16)) | CFU reduction effect compared to LNT101 and LNT102 (gram negative bacterium; 2 μM, 2 hours, 37° C., 1×10^6 CFU of each gram negative bacterium) | counting result (gram negative bacterium; 2 μM, all the tested bacterium (FIG. 15)) [log CFU/ml] | CFU Counting result (gram negative bacterium; LNT103 2 μM, all the tested gram negative bacterium (FIG. 16)) | killing ability (number of colonies) (gram negative bacterium; P. aeruginosa PA01 and A. baumannii ATCC 19606, 0.1-2.7 μM 2 hours, 2 μM 0-60 minutes, 1 μM 0-10 minutes) | viability for 96 hours [1] | CFU Counting result (Acinetobacter baumannii; Acinetobacter baumannii (ATCC 19606, ATCC 17978), 2 μM, 2 hours) [log CFU/ml] | IC50 (cytotoxicity) (Huh-7 cell line) [mg/mL] | killing ability (number of colonies) (gram negative bacterium; 2 μM, 2 hours, 37° C., P. aeruginosa PA01, A. baumannii ATCC 17978, E. coli ATCC 8739, K. pneumoniae ATCC 13883, E. aerogenes CCARM 16006, S. enteritidis ATCC 13076) | CFU reduction (Klebsiella aerogenes) | CFU reduction (Enterobacter cloacae) | CFU reduction (Acinetobacter baumannii; A. baumannii ATCC 2508) | CFU reduction (Acinetobacter baumannii; A. baumannii F4) | CFU reduction (Acinetobacter baumannii; A. baumannii F15)
LNT103: fusion polypeptide [Cecropin A]-[linker (GSGSGS)]-[endolysin LNT102]; SEQ ID NO: 15 (MAS, His tag) used in the tests (protein, synthetic_Fusion Polypeptide LNT103 with MAS, His tag, and extra sequence) MASKWKLFKKIEKVGQNIRDGIIKAGPAVAVVGQATQIAKGSGSGSMGTVLKRGDRGSAVEDLQMKLNVAGYNLSADGIFGGDTEKAVRDVQAGAGLVVDGKVGPKTLYAIAKSATVPAKWEAIPFPTANKSRSAAMPTLNAVGAMTGVDSRLLATFASIESAFDYTVKAKTSSATGWFQFLDATWDDMIKAYGSKYGIPKDPTRALRKDPRANALMGAEFIKGNAAVLRPVINREPSDTDLYLAHFLGAGGAKKFLSADQKTLGEVLFPKPAKANPSIFSNKGVPRTLAEIYKLFEDKVSKHRALEHHHHHH | had excellent antibacterial activity | 1.5˜5.5 log CFU/ml | 0 | 0 | had the killing ability against gram negative bacterium in a concentration and time-dependent manner | higher viability compared to the non-administration group (control) and comparative group (colistin administration group) | 0 | > 1 |  |  |  |  |  | 
LNT101: endolysin derived from bacteriophage PBPA90, amino acid sequence SEQ ID NO: 1 (259 aa), purified with 6× His tag (protein, 6xHis tag; synthetic_Endolysin LNT101) MGTVLKRGDRGSAVEDLQMKLRVAGYAVSADGIFGGDTEKAVRDFQASKALVVDGKVGPATLAELAKSATVPAKWEAIPFPTANKSRSAAMPTLNAVGAMTGTDSRLLATFASIESAFDYTVKASTSSATGWFQFLDATWDDMIKAHGSKYGIPKDPTRALRKDPRANALMGAEFLKGNAAVLRPVINREPSDTDLYLAHFLGAGGAKKFLSADQKTLGEVLFPKPAKANPSIFSNKGVPRTLAEIYKLFEDKVSKHRA |  |  |  |  |  |  |  |  | excellent killing ability compared to the control group | ◯ (‘◯’ means reduction of 0.5 log CFU or more through the CFU reduction assay) | ◯ (‘◯’ means reduction of 0.5 log CFU or more through the CFU reduction assay) | ◯ (‘◯’ means reduction of 0.5 log CFU or more through the CFU reduction assay) | ◯ (‘◯’ means reduction of 0.5 log CFU or more through the CFU reduction assay) | ◯ (‘◯’ means reduction of 0.5 log CFU or more through the CFU reduction assay)
